From PMC6005513

Legend:
[1] = target: HBV myr-preS1-Al633-peptide (UniProt P03138); assay: Al633 fluorescence of labelled myr-preS1-peptide bound to transfected HEK293 cells; conditions: 10 nM peptide, 20 min, 37°C, read off a plot
[2] = target: WMHBV myr-preS1-Al633-peptide; assay: as above; conditions: 10 nM peptide, 20 min, 37°C, read off a plot

Question: With “Macaca fascicularis (crab-eating macaque) Ntcp, wild type R158G” as the substance, how does the response ([1]; parent: est. 11000) read?
Answer: 25000 rfu

Question: And the response ([2]; parent: est. 11000)?
Answer: 18000 rfu

Question: For “human Na+/taurocholate co-transporting polypeptide (NTCP), wild type (from UniProt Q14973) G158D”, which response ([2]; parent: est. 24000) is on record?
Answer: 12000 rfu

Question: With “Semnopithecus sp. (langur) Ntcp, wild type R158G” as the substance, how does the response ([1]; parent: est. 11000) read?
Answer: 28000 rfu

Question: And the response ([2]; parent: est. 10000)?
Answer: 21000 rfu

Question: Which response ([1]; parent: est. 18000) does the source give for “Saimiri sciureus (common squirrel monkey) Ntcp, wild type G158R” here?
Answer: 10000 rfu

Question: And the response ([2]; parent: est. 18000)?
Answer: 11000 rfu

Question: For “human Na+/taurocholate co-transporting polypeptide (NTCP), wild type (from UniProt Q14973) G158N”, which response ([2]; parent: est. 24000) is on record?
Answer: 12000 rfu

Question: For “Chlorocebus aethiops (grivet) Ntcp, wild type (from UniProt A0A0U3VGV8) R158G”, which response ([2]; parent: est. 11000) is on record?
Answer: 20000 rfu

Question: How did the response ([2]; parent: est. 11000) turn out when “Saguinus oedipus (cotton-top tamarin) Ntcp, wild type (from UniProt A0A0U4EKU3) S158G” was run?
Answer: 15000 rfu

Question: Which response ([2]; parent: est. 11000) does the source give for “Macaca mulatta (rhesus macaque) Ntcp, wild type (from UniProt A0A0U4DKK4) R158G” here?
Answer: 20000 rfu

Question: “Callithrix jacchus (common marmoset) Ntcp, wild type (from UniProt F7HA36) G158S” was tested. Which response ([2]; parent: est. 20000) did it give?
Answer: 14000 rfu

Question: “human Na+/taurocholate co-transporting polypeptide (NTCP), wild type (from UniProt Q14973) G158V” was tested. Which response ([2]; parent: est. 24000) did it give?
Answer: 10000 rfu

Question: With “human Na+/taurocholate co-transporting polypeptide (NTCP), wild type (from UniProt Q14973) G158R” as the substance, how does the response ([2]; parent: est. 24000) read?
Answer: 11000 rfu

Question: Which results are given for “Saimiri sciureus (common squirrel monkey) Ntcp, wild type G158S”?
Answer: response ([1]; parent: est. 18000): 11000 rfu; response ([2]; parent: est. 18000): 10000 rfu

Question: Which response ([2]; parent: est. 20000) does the source give for “Callithrix jacchus (common marmoset) Ntcp, wild type (from UniProt F7HA36) G158R” here?
Answer: 11000 rfu

Question: For “human Na+/taurocholate co-transporting polypeptide (NTCP), wild type (from UniProt Q14973) G158S”, which response ([2]; parent: est. 24000) is on record?
Answer: 19000 rfu
